In experiment [1] the target is T1, human TREM2 (human, UniProt Q9NZC2 19-174, limits assumed).
T1 sequence: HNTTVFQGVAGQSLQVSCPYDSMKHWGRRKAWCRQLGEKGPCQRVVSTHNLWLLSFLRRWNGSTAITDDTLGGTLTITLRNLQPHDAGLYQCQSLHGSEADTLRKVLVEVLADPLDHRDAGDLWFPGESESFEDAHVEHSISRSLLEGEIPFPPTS
The experiment in a line: yeast-displayed Fab FACS, 1st screen 110 nM.

In experiment [2] the target is T1, human TREM2. The experiment in a line: yeast-displayed Fab FACS, 2nd screen 100 nM.

B1: V55 (Fab, V domains shown)
VH: EVQLVQSGAEVKKPGESLKISCKGSGYSFTSYWIAWVRQMPGKGLEWMGIIYPGDSDTIYSPSHQGQVTISADKSISTAYLQWSSLKASDTAMYFCARQRTFYYDSSDYFDYWGQGTLVTVSS
VL: DIQMTQSPSSVSASVGDRVTITCRASQGISSWLAWYQQKPGKAPKLLIYAASSLQNGVPSRFSGSGSGTDFTLTISSLQPEDFATYFCQQADSFPRTFGQGTKLEIK
Take B1: the “binding signal fold over 6E7 parental” value worked out at 0.24 fold in experiment [1] and 0.66 fold in experiment [2].

B2: V69 (Fab, V domains shown)
VH: EVQLVQSGAEVKKPGESLKISCKGSGYSFTSYWIAWVRQMPGKGLEWMGIIYPGDSDTRYSPSFQGQVTISADKSISTAYLQWSSLKASDTAMYFCARQRTFYYDSSDYFDYWGQGTLVTVSS
VL: DIQMTQSPSSVSASVGDRVTITCRASQGISSYLAWYQQKPGKAPKLLIYAASSLQNGVPSRFSGSGSGTDFTLTISSLQPEDFATYFCQQADSFPRTFGQGTKLEIK
Regarding B2, the “binding signal fold over 6E7 parental” value in experiment [1] was 0.41 fold; in experiment [2], 0.4 fold.

B3: V78 (Fab, V domains shown)
VH: EVQLVQSGAEVKKPGESLKISCKGSGYRFTSYWIAWVRQMPGKGLEWMGIIYPGDSDTRYSPSFQGQVTISADKSISTAYLQWSSLKASDTAMYFCARQRTFYYDSSDYFDYWGQGTLVTVSS
VL: DIQMTQSPSSVSASVGDRVTITCRASQGISSWLAWYQQKPGKAPKLLIYAASSLQNGVPSRFSGSGSGTDFTLTISSLQPEDFATYFCQQADSFPRTFGQGTKLEIK
In the case of B3, the “binding signal fold over 6E7 parental” value in experiment [1] was determined as 0.86 fold; in experiment [2], 1.11 fold.

B4: V56 (Fab, V domains shown)
VH: EVQLVQSGAEVKKPGESLKISCKGSGYSFTSYWIAWVRQMPGKGLEWMGIIYPGDSDTRYQPSFQGQVTISADKSISTAYLQWSSLKASDTAMYFCARQRTFYYDSSDYFDYWGQGTLVTVSS
VL: DIQMTQSPSSVSASVGDRVTITCRASQGISSWLAWYQQKPGKAPKLLIYAASSLQNGVPSRFSGSGSGTDFTLTISSLQPEDFATYFCQQADSFPRTFGQGTKLEIK
B4: the “binding signal fold over 6E7 parental” value in experiment [1] was 0.23 fold; in experiment [2], 0.59 fold.

B5: V58 (Fab, V domains shown)
VH: EVQLVQSGAEVKKPGESLKISCKGSGYSFTSYWIAWVRQMPGKGLEWMGIIYPGDSDTRYSPSFQGQVTISADKSISTAYLQWSSLKASDTAMYFCARQRTFYYDSSDYFDYWGQGTLVTVSS
VL: DIQMTQSPSSVSASVGDRVTITCRASQGISSWLAWYQQKPGKAPKLLIYKASSLQNGVPSRFSGSGSGTDFTLTISSLQPEDFATYFCQQADSFPRTFGQGTKLEIK
Regarding B5, the “binding signal fold over 6E7 parental” value in experiment [1] is 0.28 fold; in experiment [2], 0.68 fold.

B6: V57 (Fab, V domains shown)
VH: EVQLVQSGAEVKKPGESLKISCKGSGYSFTSYWIAWVRQMPGKGLEWMGIIYPGDSDTRYSPSFQGQVTISADKSISTAYLQWSSLKASDTAMYFCARQRTFYYDSSDYFDYWGQGTLVTVSS
VL: DIQMTQSPSSVSASVGDRVTITCAASQGISSWLAWYQQKPGKAPKLLIYAASSLQNGVPSRFSGSGSGTDFTLTISSLQPEDFATYFCQQADSFPRTFGQGTKLEIK
Take B6: the “binding signal fold over 6E7 parental” value in experiment [1] was found to be 0.84 fold; in experiment [2], 0.85 fold.

B7: V71 (Fab, V domains shown)
VH: EVQLVQSGAEVKKPGESLKISCKGSGYSFTSYWIAWVRQMPGKGLEWMGIIYPGDSDTRYSPSFQGQVTISADKSISTAYLQWSSLKASDTAMYFCARQRTFYYDSSDYFDYWGQGTLVTVSS
VL: DIQMTQSPSSVSASVGDRVTITCRASQGISSWLAWYQQKPGKAPKLLIYAASSLQNGVPSRFSGSGSGTDFTLTISSLQPEDFATYFCQQADSEPRTFGQGTKLEIK
As for B7, the entries for the “binding signal fold over 6E7 parental” value in experiment [1] and in experiment [2] were 0.37 fold and 0.48 fold, respectively.

B8: V70 (Fab, V domains shown)
VH: EVQLVQSGAEVKKPGESLKISCKGSGYSFTSYWIAWVRQMPGKGLEWMGIIYPGDSDTRYSPSFQGQVTISADKSISTAYLQWSSLKASDTAMYFCARQRTFYYDSSDYFDYWGQGTLVTVSS
VL: DIQMTQSPSSVSASVGDRVTITCRASQGISSWLAWYQQKPGKAPKLLIYAAGSLQNGVPSRFSGSGSGTDFTLTISSLQPEDFATYFCQQADSFPRTFGQGTKLEIK
Turning to B8, the results for the “binding signal fold over 6E7 parental” value in experiment [1] and in experiment [2] were 0.79 fold and 0.84 fold, respectively.

B9: V59 (Fab, V domains shown)
VH: EVQLVQSGAEVKKPGESLKISCKGSGYSFTSYWIAWVRQMPGKGLEWMGIIYPGDSDTRYSPSFQGQVTISADKSISTAYLQWSSLKASDTAMYFCARQRTFYYDSSDYFDYWGQGTLVTVSS
VL: DIQMTQSPSSVSASVGDRVTITCRASQGISSWLAWYQQKPGKAPKLLIYAASSLQNGVPSRFSGSGSGTDFTLTISSLQPEDFATYFCMQADSFPRTFGQGTKLEIK
Consider B9, for which the “binding signal fold over 6E7 parental” value in experiment [1] was 0.19 fold; in experiment [2], 0.6 fold.

B10: V66 (Fab, V domains shown)
VH: EVQLVQSGAEVKKPGESLKISCKGSGTSFTSYWIAWVRQMPGKGLEWMGIIYPGDSDTRYSPSFQGQVTISADKSISTAYLQWSSLKASDTAMYFCARQRTFYYDSSDYFDYWGQGTLVTVSS
VL: DIQMTQSPSSVSASVGDRVTITCRASQGISSWLAWYQQKPGKAPKLLIYAASSLQNGVPSRFSGSGSGTDFTLTISSLQPEDFATYFCQQADSFPRTFGQGTKLEIK
Take B10: the “binding signal fold over 6E7 parental” value in experiment [1] turned out to be 0.25 fold; in experiment [2], 0.74 fold.

B11: V68 (Fab, V domains shown)
VH: EVQLVQSGAEVKKPGESLKISCKGSGYSFTSYWIAWVRQMPGKGLEWMGIIYPGDSDTRYSPSFQGQVTISADKSISTAYLQWSSLKASDTAMYFCARQRTFRYDSSDYFDYWGQGTLVTVSS
VL: DIQMTQSPSSVSASVGDRVTITCRASQGISSWLAWYQQKPGKAPKLLIYAASSLQNGVPSRFSGSGSGTDFTLTISSLQPEDFATYFCQQADSFPRTFGQGTKLEIK
In the case of B11, the “binding signal fold over 6E7 parental” value stood at 0.44 fold in experiment [1] and 0.43 fold in experiment [2].

B12: V67 (Fab, V domains shown)
VH: EVQLVQSGAEVKKPGESLKISCKGSGYSFTSYWIAWVRQMPGKGLEWMGMIYPGDSDTRYSPSFQGQVTISADKSISTAYLQWSSLKASDTAMYFCARQRTFYYDSSDYFDYWGQGTLVTVSS
VL: DIQMTQSPSSVSASVGDRVTITCRASQGISSWLAWYQQKPGKAPKLLIYAASSLQNGVPSRFSGSGSGTDFTLTISSLQPEDFATYFCQQADSFPRTFGQGTKLEIK
B12: the “binding signal fold over 6E7 parental” value in experiment [1] came to 0.8 fold; in experiment [2] it was 0.84 fold.

B13: V79 (Fab, V domains shown)
VH: EVQLVQSGAEVKKPGESLKISCKGSGYSFTSYWIAWVRQMPGKGLEWMGIIYPGDSDTNYSPSFQGQVTISADKSISTAYLQWSSLKASDTAMYFCARQRTFYYDSSDYFDYWGQGTLVTVSS
VL: DIQMTQSPSSVSASVGDRVTITCRASQGISSWLAWYQQKPGKAPKLLIYAASSLQNGVPSRFSGSGSGTDFTLTISSLQPEDFATYFCQQADSFPRTFGQGTKLEIK
For B13, the “binding signal fold over 6E7 parental” value in experiment [1] turned out to be 0.7 fold; in experiment [2], 0.52 fold.

(Values after patent publication US20220204611A1 (Amgen, published 2022).)
